B1: CPEB3 Ribozyme (parent)
chain: UAACAGGGGGCCACAGCAGAAGCGUUCACGUCGCAGCCCCUGUCAGAUUCUGGUGAAUCUGCGAAUUCUGCUGUAUAUCUC

Variants of: B1
Assay: self-cleavage, relative activity (ratio to wild type); higher = more cleavage; in vitro, sequencing
Summary of the method: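 Barcoded CPEB3 ribozyme mutants, produced by rounds of error-prone PCR, self-cleaved while being transcribed with T7 RNA polymerase for 5 hours at 37°C and during a subsequent 15 min DNase I step before EDTA was added. Sequencing of template-switched cDNA on Illumina gave cleaved and total reads, and DNA sequencing assigned barcodes to variants. Each variant's relative activity is its cleaved/total read fraction divided by the unmutated ribozyme's fraction, averaged across three batches. A variant needed a minimum of 5 reads.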
In the case of UAACAGGGGGCCACAGCAGAAGCGUUCACGUCGCUGCCCCUGUCAGAUUCUGGUGAAUCUGCGGAUUCUGCUGUAUAUCUC [A35U A64G], the self-cleavage is reported as 0.39. With UAACAGGGGGCCACAGCAGAAGCGUUCACGUCGCUGCCCCUGUCAGAUUCUAGUGAAUCUGCGAAUUCUGCUGUAUAUCUC [A35U G52A] the self-cleavage was 0.54. With UAACAGGGGGCCACAGCAGAAGCGUUCACGUCGCUGCCCCUGUCAGAUUCUUGUGAAUCUGCGAAUUCUGCUGUAUAUCUC [A35U G52U] the self-cleavage was 0.72. With UAACAGGGGGCCACAGCAGAAGCGUUCACGUCGCUGCCCCUGUCAGAUUCUCGUGAAUCUGCGAAUUCUGCUGUAUAUCUC [A35U G52C] the self-cleavage was 0.44. Work on UAACAGGGGGCCACAGCAGAAGCGUUCACGUCGCUGCCCCUGUCAGAUUCUGGUGAAUCUGCGAAUUCUGCUGUAUAUCUU [A35U C81U] yielded a self-cleavage of 0.61. Variant UAACAGGGGGCCACAGCAGAAGCGUUCACGUCGCUGCCCCUGUCAGAUUCUGGUGAAUCUGCGAAUUCUGCUGUAUAUCUG [A35U C81G] has a self-cleavage of 0.39. Work on UAACAGGGGGCCACAGCAGAAGCGUUCACGUCGCUGCCCCUGUCAGAUUCUGGUGAAUCUGAGAAUUCUGCUGUAUAUCUC [A35U C62A] yielded a self-cleavage of 0.13. UAACAGGGGGCCACAGCAGAAGCGUUCACGUCGCUGCCCCUGUCAGAUUCUGGUGAAUCUGGGAAUUCUGCUGUAUAUCUC [A35U C62G] showed a self-cleavage of 0.28. In the case of UAACAGGGGGCCACAGCAGAAGCGUUCACGUCGCUGCCCCUGUCAGAUUCUGGUGAAUCUGUGAAUUCUGCUGUAUAUCUC [A35U C62U], the self-cleavage is reported as 0.13. With UAACAGGGGGCCACAGCAGAAGCGUUCACGUCGCUGCCCCUGUCAGAUUCUGGUGAAUCUGCCAAUUCUGCUGUAUAUCUC [A35U G63C] the self-cleavage was 0.45. UAACAGGGGGCCACAGCAGAAGCGUUCACGUCGCUGCCCCUGUCAGAUUCUGGUGAAUCUGCAAAUUCUGCUGUAUAUCUC [A35U G63A] showed a self-cleavage of 0.27. With UAACAGGGGGCCACAGCAGAAGCGUUCACGUCGCUGCCCCUGUCAGAUUCUGGUGAAUCUGCUAAUUCUGCUGUAUAUCUC [A35U G63U] the self-cleavage was 0.52. Variant UAACAGGGGGCCACAGCAGAAGCGUUCACGUCGCUGCCCCUGUAAGAUUCUGGUGAAUCUGCGAAUUCUGCUGUAUAUCUC [A35U C44A] has a self-cleavage of 0.16. Work on UAACAGGGGGCCACAGCAGAAGCGUUCACGUCGCUGCCCCUGUUAGAUUCUGGUGAAUCUGCGAAUUCUGCUGUAUAUCUC [A35U C44U] yielded a self-cleavage of 0.16. With UAACAGGGGGCCACAGCAGAAGCGUUCACGUCGCGGCCCCUGUCAGAUUCUGGUGAAUCUGCGAAUUCUGCUGUAUAUCCC [A35G U80C] the self-cleavage was 1.3. UAACAGGGGGCCACAGCAGAAGCGUUCACGUCGCGGCCCCUGUCAGAUUCUGGUGAAUCUGCGAAUUCUGCUGUAUAUCAC [A35G U80A] gave a self-cleavage of 1.32. Work on UAACAGGGGGCCACAGCAGAAGCGUUCACGUCGCGGCCCCUGUCAGAUUCUGGUGAAUCUGCGAAUUCUGCUGUAUAUCGC [A35G U80G] yielded a self-cleavage of 1.37. Work on UAACAGGGGGCCACAGCAGAAGCGUUCACGUCGCUGCCCCUGUCAGAUUCUGGUGACUCUGCGAAUUCUGCUGUAUAUCUC [A35U A57C] yielded a self-cleavage of 0.31. Variant UAACAGGGGGCCACAGCAGAAGCGUUCACGUCGCUGCCCCUGUCAGAUUCUGGUGAGUCUGCGAAUUCUGCUGUAUAUCUC [A35U A57G] has a self-cleavage of 0.47. With UAACAGGGGGCCACAGCAGAAGCGUUCACGUCGCUGCCCCUGUCAGAUUCUGGUGAUUCUGCGAAUUCUGCUGUAUAUCUC [A35U A57U] the self-cleavage was 0.2. Work on UAACAGGGGGCCACAGCAGAAGCGUUCACGUCGCUGCCCCUGUCAGAUUCUGGUGCAUCUGCGAAUUCUGCUGUAUAUCUC [A35U A56C] yielded a self-cleavage of 0.23. Work on UAACAGGGGGCCACAGCAGAAGCGUUCACGUCGCUGCCCCUGUCAGAUUCUGGUGUAUCUGCGAAUUCUGCUGUAUAUCUC [A35U A56U] yielded a self-cleavage of 0.33. Variant UAACAGGGGGCCACAGCAGAAGCGUUCACGUCGCUGCCCCUGUCAGAUUCUGGUGGAUCUGCGAAUUCUGCUGUAUAUCUC [A35U A56G] has a self-cleavage of 0.5. UAACAGGGGGCCACAGCAGAAGCGUUCACGUCGCUGCCCCUGUCAGAUUCUGUUGAAUCUGCGAAUUCUGCUGUAUAUCUC [A35U G53U] gave a self-cleavage of 0.76. Work on UAACAGGGGGCCACAGCAGAAGCGUUCACGUCGCUGCCCCUGUCAGAUUCUGAUGAAUCUGCGAAUUCUGCUGUAUAUCUC [A35U G53A] yielded a self-cleavage of 0.51. With UAACAGGGGGCCACAGCAGAAGCGUUCACGUCGCUGCCCCUGUCAGAUUCUGGUGAAUCUGCGAAUUCUGCUGUUUAUCUC [A35U A75U] the self-cleavage was 0.56. UAACAGGGGGCCACAGCAGAAGCGUUCACGUCGCUGCCCCUGUCAGAUUCUGGUGAAUCUGCGAAUUCUGCUGUGUAUCUC [A35U A75G] gave a self-cleavage of 0.58. For UAACAGGGGGCCACAGCAGAAGCGUUCACGUCGCUGCCCCUGUCAGAUUCUGGUGAAUCUGCGAAUUCUGCUGUCUAUCUC [A35U A75C], the self-cleavage was 0.71. Variant UAACAGGGGGCCACAGCAGAAGCGUUCACGUCGCUGCCCCUGUCAGAUUCUGGUGAAUCUGCGAAUUCUGCUGUAUAUCUC [A35U] has a self-cleavage of 0.54. For UAACAGGGGGCCACAGCAGAAGCGUUCACGUCGCUGCCCCUGUCAGGUUCUGGUGAAUCUGCGAAUUCUGCUGUAUAUCUC [A35U A47G], the self-cleavage was 0.48. With UAACAGGGGGCCACAGCAGAAGCGUUCACGUCGCUGCCCCUGUCAGCUUCUGGUGAAUCUGCGAAUUCUGCUGUAUAUCUC [A35U A47C] the self-cleavage was 0.4. UAACAGGGGGCCACAGCAGAAGCGUUCACGUCGCUGCCCCUGUCAGUUUCUGGUGAAUCUGCGAAUUCUGCUGUAUAUCUC [A35U A47U] gave a self-cleavage of 0.26. Work on UAACAGGGGGCCACAGCAGAAGCGUUCACGUCGCUGCCCCUGUCAGAUUCUGGUGAAUUUGCGAAUUCUGCUGUAUAUCUC [A35U C59U] yielded a self-cleavage of 0.29. Work on UAACAGGGGGCCACAGCAGAAGCGUUCACGUCGCUGCCCCUGUCAGAUUCUGGUGAAUAUGCGAAUUCUGCUGUAUAUCUC [A35U C59A] yielded a self-cleavage of 0.15.

Source: the RNAGym collection of RNA variant scans (doi:10.1093/nar/gkz1192)
